Experimental data: patent US20180127735A1

What was measured:
protein C = protein C (UniProt P04070)
[1] = target: thrombin (Homo sapiens (Human)) (UniProt P00734); assay: cell-based or functional assay

| clotting time of fibrinogen by thrombin with thrombomodulin at saturating concentrations [1] [min] | Substance | enzyme-mediated conversion of protein C into activated protein C (aPC), thrombin in the absence of TM (protein C) |
| --- | --- | --- |
| – | thrombin | minimal activated protein C (aPC) activity was generated |
| < 305 | full-length thrombomodulin (from UniProt P07204 19-575) (receptor) | – |
